Patent publication US20140234351A1 (IMMUNOCELLULAR THERAPEUTICS, published 2014)

molecular target: T1, HLA-A*0201 molecules on TAP-deficient T2 cells (human); assay: T2 cell binding assay, fluorescence index (MFI peptide - MFI untreated)/MFI untreated
T1 construct: also called HLA-A2; T2 cells expressing HLA-A2

Row | MFI index | Binder
1 | > 1.5 | TLADFDPRV (Synthetic peptide; also called EphA2p883; EphA2 p883) [EphA2 883-891 HLA-A2 peptide]
2 | > 1.5 | VLPLTVAEV (Synthetic peptide; also called mesothelinp531; mesothelin p531) [Mesothelin 531-539 HLA-A2 peptide]
3 | > 1.5 | KVLEYVIKV (Synthetic peptide; also called MAGEA1p278; MAGE-A1 p278) [MAGE-A1 278-286 HLA-A2 peptide]
4 | < 1 | EIWTHSYKV (Synthetic peptide; also called FOLR1p191; FOLR1 p191) [FOLR1 191-199 HLA-A2 peptide]
5 | > 1.5 | WLPFGFILI (Synthetic peptide; also called IL-13Rα2p345; IL-13Rα2 p345) [IL-13Rα2 345-352 HLA-A2 peptide]
